# Experimental data: US20200024322A1 (Eli Lilly, published 2020)
# Substitutions are numbered along the chain they refer to. Numbered stars: 1 amine (or outer) side, 2 acyl side, 3 side chain; on linkers, the order of the positions; unused ones are H or OH. Square brackets hold non-standard residues; d marks the D form. Side chains are listed from the residue outwards. Ends that are not written are not given here. * marks the point of attachment. C20 diacid = O=C(O)CCCCCCCCCCCCCCCCCCC(=O)*; γGlu = O=C(O)[C@H](CCC(=O)[*:2])N[*:1]; αMeF = C[C@](N)(Cc1ccccc1)C(=O)O; AEEA = NCCOCCOCC(=O)O; Aib = CC(C)(N)C(=O)O
# T1: human GIP receptor (human, UniProt P48546 22-466)
# T1 construct: whole, on cells; Used as crude membranes of stably transfected CHO cells; also called hGIPR
# T1 sequence (looked up): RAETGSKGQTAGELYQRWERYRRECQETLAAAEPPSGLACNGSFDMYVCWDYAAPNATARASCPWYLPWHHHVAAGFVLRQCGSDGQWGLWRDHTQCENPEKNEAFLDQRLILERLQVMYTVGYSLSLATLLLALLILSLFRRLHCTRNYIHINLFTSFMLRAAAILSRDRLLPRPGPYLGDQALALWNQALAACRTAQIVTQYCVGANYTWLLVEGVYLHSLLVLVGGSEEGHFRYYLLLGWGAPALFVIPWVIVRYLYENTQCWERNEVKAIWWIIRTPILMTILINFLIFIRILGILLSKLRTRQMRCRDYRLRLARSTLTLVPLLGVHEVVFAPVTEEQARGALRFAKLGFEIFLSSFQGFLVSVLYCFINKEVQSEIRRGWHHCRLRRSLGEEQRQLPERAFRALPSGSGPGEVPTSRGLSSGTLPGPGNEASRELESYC
# B1: Example 100 (peptide)
# peptide: YXEGTXTSDYSIXLDEKAQXAFIEYLIEGG
# modifications: Aib2; αMeF6; αMeL13; K17((2-[2-(2-Amino-ethoxy)-ethoxy]-acetyl)2-(γ-Glu)-CO-(CH2)18-CO2H); Aib20; C-terminal NH2
# B2: Example 103 (peptide)
# peptide: B1 peptide with A21E
# modifications: Aib2; αMeF(2F)6; αMeL13; K17((2-[2-(2-Amino-ethoxy)-ethoxy]-acetyl)2-(γ-Glu)-CO-(CH2)18-CO2H); Aib20; C-terminal NH2
# B3: Example 104 (peptide)
# peptide: B1 peptide with A21E
# modifications: Aib2; αMeF(2F)6; αMeL13; K17((2-[2-(2-Amino-ethoxy)-ethoxy]-acetyl)2-(γ-Glu)-CO-(CH2)16-CO2H); Aib20; C-terminal NH2
# B4: Example 99 (peptide)
# peptide: B1 peptide with E16K
# modifications: Aib2; αMeF6; αMeL13; K17((2-[2-(2-Amino-ethoxy)-ethoxy]-acetyl)2-(γ-Glu)-CO-(CH2)18-CO2H); Aib20; C-terminal NH2
# B5: Example 93 (peptide)
# peptide: Y[Aib]EGT[αMeF]TSDYSILK([AEEA-AEEA-γGlu-C20 diacid])DKIAQ[Aib]AFIEYLIEGG-NH2
# modifications: N-terminus assumed
# SMILES: CC[C@H](C)[C@H](NC(=O)[C@H](CCCCN)NC(=O)[C@H](CC(=O)O)NC(=O)[C@H](CCCCNC(=O)COCCOCCNC(=O)COCCOCCNC(=O)CC[C@H](NC(=O)CCCCCCCCCCCCCCCCCCC(=O)O)C(=O)O)NC(=O)[C@H](CC(C)C)NC(=O)[C@@H](NC(=O)[C@H](CO)NC(=O)[C@H](Cc1ccc(O)cc1)NC(=O)[C@H](CC(=O)O)NC(=O)[C@H](CO)NC(=O)[C@@H](NC(=O)[C@](C)(Cc1ccccc1)NC(=O)[C@@H](NC(=O)CNC(=O)[C@H](CCC(=O)O)NC(=O)C(C)(C)NC(=O)[C@@H](N)Cc1ccc(O)cc1)[C@@H](C)O)[C@@H](C)O)[C@@H](C)CC)C(=O)N[C@@H](C)C(=O)N[C@@H](CCC(N)=O)C(=O)NC(C)(C)C(=O)N[C@@H](C)C(=O)N[C@@H](Cc1ccccc1)C(=O)N[C@H](C(=O)N[C@@H](CCC(=O)O)C(=O)N[C@@H](Cc1ccc(O)cc1)C(=O)N[C@@H](CC(C)C)C(=O)N[C@H](C(=O)N[C@@H](CCC(=O)O)C(=O)NCC(=O)NCC(N)=O)[C@@H](C)CC)[C@@H](C)CC
# B6: Example 88 (peptide)
# peptide: YPEGTFTSDYSILLDKK([AEEA-AEEA-γGlu-C20 diacid])AQ[Aib]AFIEYLIEGGPSSGAPPPS-NH2
# modifications: N-terminus assumed
# SMILES: CC[C@H](C)[C@H](NC(=O)[C@H](CC(C)C)NC(=O)[C@H](Cc1ccc(O)cc1)NC(=O)[C@H](CCC(=O)O)NC(=O)[C@@H](NC(=O)[C@H](Cc1ccccc1)NC(=O)[C@H](C)NC(=O)C(C)(C)NC(=O)[C@H](CCC(N)=O)NC(=O)[C@H](C)NC(=O)[C@H](CCCCNC(=O)COCCOCCNC(=O)COCCOCCNC(=O)CC[C@H](NC(=O)CCCCCCCCCCCCCCCCCCC(=O)O)C(=O)O)NC(=O)[C@H](CCCCN)NC(=O)[C@H](CC(=O)O)NC(=O)[C@H](CC(C)C)NC(=O)[C@H](CC(C)C)NC(=O)[C@@H](NC(=O)[C@H](CO)NC(=O)[C@H](Cc1ccc(O)cc1)NC(=O)[C@H](CC(=O)O)NC(=O)[C@H](CO)NC(=O)[C@@H](NC(=O)[C@H](Cc1ccccc1)NC(=O)[C@@H](NC(=O)CNC(=O)[C@H](CCC(=O)O)NC(=O)[C@@H]1CCCN1C(=O)[C@@H](N)Cc1ccc(O)cc1)[C@@H](C)O)[C@@H](C)O)[C@@H](C)CC)[C@@H](C)CC)C(=O)N[C@@H](CCC(=O)O)C(=O)NCC(=O)NCC(=O)N1CCC[C@H]1C(=O)N[C@@H](CO)C(=O)N[C@@H](CO)C(=O)NCC(=O)N[C@@H](C)C(=O)N1CCC[C@H]1C(=O)N1CCC[C@H]1C(=O)N1CCC[C@H]1C(=O)N[C@@H](CO)C(N)=O
# B7: Example 89 (peptide)
# peptide: YXXGTFTSDYSILLDKKAQXAFIEYLIEGGPSSGAPPPS
# modifications: Aib2; Aad3; K17((2-[2-(2-Amino-ethoxy)-ethoxy]-acetyl)2-(γ-Glu)-CO-(CH2)18-CO2H); Aib20; C-terminal NH2
# B8: Example 91 (peptide)
# peptide: B7 peptide
# modifications: Aib2; γ-Glu3; K17((2-[2-(2-Amino-ethoxy)-ethoxy]-acetyl)2-(γ-Glu)-CO-(CH2)18-CO2H); Aib20; C-terminal NH2
# Target: T1, human GIP receptor
# Assay: SPA, [125I]-GIP displacement, hGIPR membranes
row,Binder,Ki [nM]
1,B1,0.115
2,B2,0.0645
3,B3,0.0565
4,B4,0.027
5,B5,0.0859
6,B6,0.0717
7,B7,0.045
8,B8,1.8

# Target: T2, human glucagon receptor (human, UniProt P47871 26-477)
# T2 construct: whole, on cells; Used as crude membranes of stably transfected HEK293 cells; also called hGcgR; hGLcgR
# Assay: SPA, [125I]-Gcg displacement, hGcgR membranes
# T2 sequence (P47871 26-477): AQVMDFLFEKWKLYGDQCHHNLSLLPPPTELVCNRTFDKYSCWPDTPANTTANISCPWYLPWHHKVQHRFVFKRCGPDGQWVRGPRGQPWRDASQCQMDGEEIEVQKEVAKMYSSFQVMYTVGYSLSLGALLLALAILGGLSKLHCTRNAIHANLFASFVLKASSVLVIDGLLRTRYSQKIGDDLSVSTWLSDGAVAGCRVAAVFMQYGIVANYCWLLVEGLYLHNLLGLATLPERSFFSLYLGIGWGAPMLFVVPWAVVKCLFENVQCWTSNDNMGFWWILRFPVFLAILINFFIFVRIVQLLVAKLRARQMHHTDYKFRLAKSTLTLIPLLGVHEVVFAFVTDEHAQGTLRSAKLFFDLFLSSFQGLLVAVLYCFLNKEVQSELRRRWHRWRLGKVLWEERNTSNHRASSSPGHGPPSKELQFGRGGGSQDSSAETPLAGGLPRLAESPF
row,Binder,Ki [nM]
1,B1,44
2,B2,40.3
3,B3,123
4,B4,23.6
5,B5,15.7
6,B6,545
7,B7,324
8,B8,540

# Target: T3, human GLP-1 receptor (human, UniProt P43220 24-463)
# T3 construct: whole, on cells; Used as crude membranes of stably transfected HEK293 cells; also called hGLP1R; hGLP-1R
# Assay: SPA, [125I]-GLP-1 displacement, hGLP-1R membranes
row,Binder,Ki [nM]
1,B1,4.13
2,B2,6.68
3,B3,3.91
4,B4,1.15
5,B5,1.89
6,B6,4.24
7,B7,2.64
8,B8,5.23
